Test results: patent publication US12527879B2, “Ligands targeted to epidermal growth factor receptors and compositions for use in treating tumors” (priority 2019, dated 2026)

Columns and labels:
marine EGFR-Ex-Fc = biological target: T1, marine EGFR-Ex-Fc (Mus musculus, UniProt Q01279); assay: Recognition of murine EGFR-Ex-Fc by EGFR-s10; format: binding
T1 construct: the extracellular domain of human EGFR-Fc fusion protein (EGFR-Ex-Fc)
Source text: (§1) EGFR s10 recognized both human and marine EGFR-Ex-Fc. This feature eliminates any requirements for a surrogate molecule to evaluate toxicity in murine platforms. After validating internalization of EGFR-s10 in target cells, we fabricated LTLs loaded with doxorubicin or vinorelbine (EGFR-s10-LD and EGFR-s10-LV, respectively) using a thin film method and PEGylation of EGFR-s10. […] The zeta-potentials were all higher than required to prevent formation of aggregates. […] In summary, EGFR-specific binding of EGFR-s10 was retained through chemical processing, and the resulting LTLs fulfilled the requirements of anti-neoplastic liposomal drugs, indicating suitability for further development.

human EGFR-Ex-Fc = biological target: T2, human EGFR-Ex-Fc (Homo sapiens, UniProt P00533); assay: Recognition of human EGFR-Ex-Fc by EGFR-s10; format: binding
T2 construct: the extracellular domain of human EGFR-Fc fusion protein (EGFR-Ex-Fc); purchased R&D system
Source text: as §1

Ca9-22 cells [1] = assay: Endocytosis assay of soluble EGFR-s10 scFv, Ca9-22; format: cell-based, human; conditions: 30 min, confocal microscopy
Protocol: (§2) Cells were incubated with EGFR-s10 for 30 min at 4° C. or 37° C. Following a PBS wash, the cells were fixed with 2% paraformaldehyde and permeabilized with 0.1% TRITON® X-100. Blocking was accomplished by adding 3% BSA. Mouse ANTI-FLAG antibodies were added to the cells and labeled with FITC anti-mouse IgG. Nuclei were stained with DAPI, and cells were observed on a confocal microscope (TCS-SP5, Leica).
(§3) We produced soluble scFv from EGFR-PC10 and designated it as EGFR-s10. Target binding and internalization are essential requirements of LTL-targeting moieties. We investigated these features of EGFR-s10 in SCCHN cancer cell lines. FaDu cells and Ca9-22 cells were separately incubated with EGFR-s10 at 4° C. or 37° C. for 30 min and compared with isotypic IgG controls. […] (FIGS. 3A-B).

FaDu cells [2] = assay: Endocytosis assay of soluble EGFR-s10 scFv, FaDu; format: cell-based, human; conditions: 30 min, confocal microscopy
Protocol: as §2, §3

[3] = Zeta-potential by laser Doppler electrophoresis; format: physicochemical
Protocol: (§4) The average particle size of liposomes was determined by dynamic light scattering (DLS) at 25° C. using Malvern Zetasizer Nano ZS (Malvern instruments) with a 633-nm laser and a detection angle of 90°. The zeta-potential of the liposomes was measured using laser Doppler electrophoresis on the Malvern Zetasizer Nano ZS.

[4] = Particle size by dynamic light scattering; format: physicochemical; conditions: DLS at 25° C.
Protocol: as §4

Ca9-22 cells [5] = assay: In vitro cytotoxicity assay (WST-1), Ca9-22; format: cell-based, human
Protocol: (§5) FaDu and Ca9-22 cells were incubated with various concentrations of non-targeted liposomal drugs, or EGFR-s10-conjugated LTLs for 4, 8, 16 and 24 hr. The medium was replaced with complete medium for 48 hr, and 4-[3-(4-iodophenyl)-2-(4-nitrophenyl)-2H-5-tetrazolio]-1,3-benzene disulfonate (WST-1) was added at 0.5 mg/ml. After the cells were incubated for 3 hr at 37° C., the reaction products' absorbance at 440-nm was measured, and half maximal inhibitory concentrations (IC50) were calculated.
(§6) The cytotoxicity of EGFR-s10-conjugated LTLs was compared to that of non-targeting counterparts in human SCCHN cell lines. Cell viability was analyzed by the WST-1 assay and calculated as percentage of living cells.

FaDu cells [6] = assay: In vitro cytotoxicity assay (WST-1), FaDu; format: cell-based, human
Protocol: as §5, §6

[7] = tested on: Ca9-22 subcutaneous xenograft; assay: Murine subcutaneous Ca9-22 xenograft therapeutic assay; format: in vivo; conditions: 1.5 mg/kg twice a week for 4 weeks
Protocol: FaDu and Ca9-22 cells were inoculated s.c. into the flanks of 8- to 10-week-old Nod-SCID mice (1×10^6 cells/mouse). The diameters of the resulting tumors were measured twice per week, and tumor volume was calculated as follows: large diameter×(small diameter)^2×0.52. When tumors reached a mean volume of 350 mm^3, mice with similarly sized tumors were randomized into treatment cohorts (n=8 mice/group). Therapeutic regimens were injected intravenously (i.v.) as PBS, non-targeted liposomal drugs, or EGFR-s10 conjugated LTLs at 1 mg/kg, twice a week for 4 weeks, with a cumulative dose of 8 mg/kg for each group. The tumor volume was monitored twice a week. Premature death endpoints included weight loss greater than 5 g, inability to eat, or tumor volume exceeding 2000 mm^3.
The LTL treatment confers a statistically significant survival advantage over the non-targeting liposome (p=0.00153) and the median survival time of LTL group was 1.5-times longer than that of NTL group (94 days versus 60 days, respectively; FIG. 5D, upper and lower panels). We also tested singlet vinorelbine treatment in forms of free drug, NTL or LTL, with a dose of 1.5 mg/kg twice a week for 4 weeks in subcutaneously Ca9-22-xenografted NOD/SCID mice.

B1: EGFR-s10: soluble scFv generated from phage clone EGFR-PC10; amino acid sequence SEQ ID NO: 9 (protein)
scFv: EVQLVESGGGLVQPGGSLRLSCAASGFNLSSFWMSWVRQAPGKGLEWVANINHDGSDKYYVDSVKGRFSISRDNTKNSVYLQMDSLRGEDTAVYYCAKGKSLYDGSALDMWGQGTMVTVSSGGGGSGGGGSGGGGSDIVMTQSPSTLSASVGDRVTITCRASQTIGRWLAWYQQKPGKAPKLLIYGASSLQSGVPSRFSGSGSGTDFTLTISSLQPEDFATYYCQQSYSTLWTFGQGTKLEIKR
modifications: Whole scFv
- recognition of marine EGFR-Ex-Fc (marine EGFR-Ex-Fc): recognized
- recognition of human EGFR-Ex-Fc (human EGFR-Ex-Fc): recognized
- binding to cells (Ca9-22 cells [1]; Ca9-22, 4° C.): bound to the cell membrane
- internalization (Ca9-22 cells [1]; Ca9-22, 37° C.): Internalization of EGFR-s10 (scFvs) as cytoplasmic aggregates was observed
- binding to cells (FaDu cells [2]; 4° C.): bound to the cell membrane
- internalization (FaDu cells [2]; 37° C.): Internalization of EGFR-s10 (scFvs) as cytoplasmic aggregates was observed

B2: EGFR-s10-LD (conjugate)
scFv: EVQLVESGGGLVQPGGSLRLSCAASGFNLSSFWMSWVRQAPGKGLEWVANINHDGSDKYYVDSVKGRFSISRDNTKNSVYLQMDSLRGEDTAVYYCAKGKSLYDGSALDMWGQGTMVTVSSGGGGSGGGGSGGGGSDIVMTQSPSTLSASVGDRVTITCRASQTIGRWLAWYQQKPGKAPKLLIYGASSLQSGVPSRFSGSGSGTDFTLTISSLQPEDFATYYCQQSYSTLWTFGQGTKLEIKR
modifications: left off: small tags and cut ends
- ζ-potential [3]: −28.1 mV
- Z-average [4]: 125 nm·days
- IC50 relative to non-targeting liposome (Ca9-22 cells [5]): 0.0028 fold
- IC50 relative to non-targeting liposome (FaDu cells [6]): 0.33 fold

B3: EGFR-s10-LV (conjugate)
scFv: EVQLVESGGGLVQPGGSLRLSCAASGFNLSSFWMSWVRQAPGKGLEWVANINHDGSDKYYVDSVKGRFSISRDNTKNSVYLQMDSLRGEDTAVYYCAKGKSLYDGSALDMWGQGTMVTVSSGGGGSGGGGSGGGGSDIVMTQSPSTLSASVGDRVTITCRASQTIGRWLAWYQQKPGKAPKLLIYGASSLQSGVPSRFSGSGSGTDFTLTISSLQPEDFATYYCQQSYSTLWTFGQGTKLEIKR
modifications: left off: small tags and cut ends
- ζ-potential [3]: −29.2 mV
- mean tumor volume compared to NTL vinorelbine [7]: smaller
- weight loss [7]: no weight loss was observed
- Z-average [4]: 115.2 nm·days
- IC50 relative to non-targeting liposome (Ca9-22 cells [5]): 0.14 fold
- IC50 relative to non-targeting liposome (FaDu cells [6]): 0.21 fold
